Among the data in the RNAGym collection of RNA variant scans (doi:10.7554/elife.90254) are self-cleavage values, retold here.

Sequences and labels used below:
B1: LINE1-full (parent)
chain: UACGUAGGUGGUUUUCCCCUGAUAGUGCUAAGGGGGCCUGGAAGUUUGGACUGGGCAGAGCUCAACACAGCGUGGCAAAGUGGCUGUGGCUAGACUGCCUCUCUGGAUUCCUCGUCACUCAGCAGGGCAUCUCUGAGAGAAAUGCC

In this series the parent is B1. Nature of the series: self-cleavage, relative activity (ratio to wild type); higher = more cleavage; in vitro, sequencing; the parent is a self-cleaving ribozyme.
Take U14G A24G: the self-cleavage came to 0.79.
As for U14C A22G, the self-cleavage came out at 0.99.
Next, U14G A121U: 0.95.
In the case of U14C G89U it was 0.05; in that of U14C U45G, 1.34.
Next, U14G A69G: 0.42; U15C G53A: 1.34; U14A G48A: 1.09.
As for U14C A69U, the self-cleavage came to 0.07.
In the case of U14C A69C it was 0.08; in that of U15A A69G, 0.22; in that of U15C C111U, 1.47.
As for U15A A107U, the self-cleavage was determined as 1.06.
Consider U15A U47G, for which the self-cleavage amounted to 0.
Consider U15A U47A, for which the self-cleavage worked out at 0.76.
In the case of U14C C111A it was 1.2; in that of U14C C111U, 1.14.
For U15A U46C, the self-cleavage turned out to be 0.76.
On to U15A U46A, for which the self-cleavage is 0.71.
Regarding U14C U91A, the self-cleavage came out at 0.91.
Next, U15A C111U: 1.37; U14A U102C: 1.19.
For U15C A79G, the self-cleavage was 1.18.
In the case of U15C A79C it was 1.84; in that of U14C A57C, 0.36; in that of U14C A57G, 0.89.
In the case of U14C A107G it was 1.22; in that of U14C A107U, 1.2.
U14A G36U: the self-cleavage came to 1.12.
In the case of U15A A67G it was 0.41.
In the case of U14C G93U it was 0.06; in that of U14C U15A, 0.93; in that of U14C U15C, 1.27.
In the case of U15A U134A it was 0.87; in that of U15A A141G, 1.35; in that of U15A A141U, 1.07.
Take U14C G49U: the self-cleavage amounted to 1.21.
Next, U14C U73G: 1.05; U15A U100G: 1.07; U15A U100A: 0.59.
In the case of U15C G32U it was 1.15; in that of U15C C63U, 0.43.
Turning to U15C C146G, the self-cleavage was determined as 1.45.
For U15A C133U, the self-cleavage turned out to be 1.31.
Turning to U14A G54A, the self-cleavage is 0.4.
In the case of U14C U134C it was 1.34; in that of U14C U134A, 0.84.
In the case of U15C A30G it was 1.14.
U15C G34A: the self-cleavage worked out at 0.78.
Next, U15C G34U: 1.65; U15C U39C: 1.51.
Next, U14G U52A: 1.08; U14G A117G: 0.39; U14G A117U: 0.78.
Turning to U14C U143C, the self-cleavage worked out at 1.02.
In the case of U14C U143A it was 0.99; in that of U14C U143G, 1.93; in that of U15C G21A, 1.11.
Next, U14C G106U: 0.66.
For the variant U15C A136C, the self-cleavage came to 1.99.
Next, U15C A136G: 1.52.
In the case of U14G U81A it was 1.91; in that of U15A G36U, 1.31; in that of U14C A124G, 1.09.
In the case of U14C A124U it was 1.25; in that of U14C C99U, 0.75; in that of U15A A30U, 0.85.
Consider U14C A79G, for which the self-cleavage stood at 0.84.
Next, U14G U29C: 1.6.
Next, U14C G36C: 1.41.
Next, U15C C103U: 1.53; U15C A107U: 1.2.
Turning to U14C A129G, the self-cleavage was found to be 1.02.
Take U15A C28A: the self-cleavage turned out to be 1.16.
With U15A A142C, the self-cleavage came out at 1.71.
Next, U14G U85A: 0.28; U15A C123G: 0.92; U14C A67U: 0.
Consider U14C A67C, for which the self-cleavage turned out to be 0.13.
U15C C116U: the self-cleavage turned out to be 0.62.
Next, U14A U134C: 1.62.
In the case of U15A A124U it was 0.85.
In the case of U15A A124G it was 0.76; in that of U14G U39C, 1.25.
In the case of U15A U26A, the self-cleavage stood at 0.5.
In the case of U15A U91A it was 0.77.
Turning to U15A C128U, the self-cleavage worked out at 0.76.
Turning to U15A C103A, the self-cleavage is 1.27.
In the case of U14C A117U it was 1.3; in that of U15C U26C, 1.33; in that of U15C G93A, 0.07.
In the case of U14G A67U it was 0.39; in that of U15A U143C, 1.26; in that of U15C G40A, 0.3.
Next, U14A G144A: 1.12.
In the case of U14C C63A, the self-cleavage was 0.06.
Take U15C A42G: the self-cleavage was determined as 1.43.
Next, U15C A42U: 1.38; U14C A140U: 1.22; U14C A140G: 0.87.
In the case of U15A U29A it was 0.38; in that of U15C C90A, 0.02; in that of U15C C120A, 1.31.
Next, U14C U104A: 1.04; U14C G33A: 1.02; U14C G33U: 1.14.
As to U14G U132C, the self-cleavage amounted to 1.13.
In the case of U14C U102A it was 1.67; in that of U14C C120U, 1.48; in that of U15C C17A, 1.28.
Next, U15C C101G: 1.31; U15C U23G: 1.31.
In the case of U15C A67C it was 0.07; in that of U15C A67U, 0.17.
Turning to U15A U62A, the self-cleavage came out at 0.04.
In the case of U15A A59G, the self-cleavage came out at 0.08.
In the case of U14C A138G it was 1.23; in that of U14C A138U, 0.98; in that of U14C A138C, 1.56.
In the case of U15C A121U it was 1.79.
Next, U15C A121G: 1.34; U14C A65G: 0.12.
On to U14C A59G, for which the self-cleavage was 0.14.
In the case of U15A U20C, the self-cleavage was determined as 1.31.
In the case of U15C G48A it was 1.41; in that of U14A U96G, 0; in that of U14C G88U, 0.06.
Next, U15C C68U: 0.19.
In the case of U15C G58A it was 0.11; in that of U15C A50U, 1.
Consider U15A A77C, for which the self-cleavage turned out to be 0.7.
Take U14A U119C: the self-cleavage was determined as 0.85.
In the case of U15A U132A it was 0.45; in that of U14C G137A, 0.82.
In the case of U14C A142C it was 1.87.
Next, U14C U109A: 1.18.
Consider U14C U109G, for which the self-cleavage came to 0.65.
As for U15C A92G, the self-cleavage was found to be 0.21.
As for U15C A43U, the self-cleavage was 1.09.
In the case of U15C A43G it was 1.4; in that of U14C G105C, 1.84.
In the case of U15C G97A it was 0.06.
In the case of U15A A65U it was 0.29; in that of U14G A129G, 0.84.
For the variant U14G A129U, the self-cleavage stood at 0.89.
U15C G144U: the self-cleavage was 1.61.
Next, U15A A121U: 1.35.
On to U15A A121C, for which the self-cleavage came to 0.82.
In the case of U14C G75A it was 0.82.
Take U14C G48U: the self-cleavage was 1.15.
For U15C C145U, the self-cleavage is 1.47.
Next, U14C C28U: 0.8; U14C C28A: 0.74; U15C G60A: 0.04.
As to U14C G82A, the self-cleavage was 1.35.
Next, U15C G126A: 1.41.
Next, U15A U115A: 1.07; U14C U132C: 1.43.
Next, U14C U132A: 0.87; U14C A77U: 1.19; U15C G106C: 1.03.
On to U15C G106A, for which the self-cleavage came to 1.26.
In the case of U15A U39A it was 0.85; in that of U15A A92G, 0.25; in that of U14C U29G, 0.26.
Next, U14A U87A: 0.15; U14C A136C: 1.36.
